We go through 1 protein from patent US20030211587A1 (University of Texas, published 2003).

The data set deals with the molecule itself. The data set is described as follows: native gel electrophoresis of purified His-tagged keptin (self-association). The protocol: Analysis of His-tagged keptin recombinant protein. Crude proteins were extracted from E. Coli transformed with a bacterial expression vector encoding a secreted form of keptin tagged with 10× histidine residues at its N-terminus. The extracts were affinity purified with nickel resins and subjected to SDS-PAGE analysis under denatured conditions. […] The purified protein was also analyzed for its biochemical properties by native gel electrophoresis. Both keptin dimers and monomers were detected in the native gel. Leptin (MW: 14 kDa) was used as a reference for a monomer protein with similar molecular weight to His-Keptin (11.4 kDa).

B1: His-tagged keptin recombinant protein (human mature keptin with N-terminal 10x histidine, from pET-hKeptin in E. coli) (other, UniProt P60985 23-99, looked up)
chain: ATLGGPEEESTIENYASRPEAFNTPFLNIDKLRSAFKADEFLNWHALFESIKRKLPFLNWDAFPKLKGLRSATPDAQ
notes: mature; also called His-keptin; His-Keptin; not shown: N-terminal 10x histidine tag encoded by vector pET-16b
With B1, the binding result is on record as “binds”.
